Measured values: the DeepSol protein solubility set

Experiment: soluble on expression in E. coli; label from the status in PepcDB or PDB records

Soluble on expression in E. coli, not soluble:
PAGHADDAMHSYFTFVAPDRGLAKVAAAQAAALRPFLAGTPLADLPLLSSVSPLKAGGRAGPDHYTDVPAGPLSMRHVADLHMFPNELRALVLTGADLREWLEMAAGVFLSPAPAGACDMLLDTSVPGHNFDSLYGLTYEIDPRAPPRYDIGGRLIADENRRIGSLCHNGTPVDDRQKFVVALNNYRANGGGHFLMLDRGEPVPLPSLRIQSALHDYLSGRLPADPLEQAPHPWRLAPL
MRGLTPEQTLMLADAFCAQTSGDLSVRDYAALNAIAAVTTAHIHAVVVFPTAHHMVKYVRSLVIQLSPLDDRNTDFADFLVAVLRDLNGL
MAHHHHHHMLSTNISSNLNNTLVNITGRENKGEWLLYPQSNYEFNIDEKLKNKFIIDKEKCKKRINAYNKNGIRNSVLAIILCHRYEYPHLLLLQHIESQKYYLLNGKYKTWEKPKEVLKKKLQKYINKIKDIHFTPAQINKEQEETVEIGDFLGEWWRTQFNSVFLPYLPAHISRPKEYIRLYQVILSPKCIFHLPPGFTLKAIPLFDLNNCGLAISGLSSILSRFKLHCMVQEQDAEN
MGSDKIHHHHHHMFTGTFTLRSRKSRHDHSSGNVRVCENEDMFESVGTWWRNLTHRHGDDRNNDDTLDDATNTLLSILPLASIVVDEHDEVIRAHPDAYALGVVRDDAIADDTVASAVHEVRAHGGKKQFSLTTTTLHEPKKAPKAGKPTMREVAKQALIGQSPDKPVTTVSRPNWLKVIVGRLNERFVVVLVSDVSETVRFSQIRDSFITNVSEQLLKPTQSLEELADALEHDSDNKAAIEGNTVKLRQSCARMEHMVSDLLLLIKAQEPILPTASNRINVMEQVKTVVDAHRDMAQRRGIDIEIDGDESLDINGEGEQIQAAVAKLLENAIAYSPDGKGITVSVKPNEDGTKVLLSVLDRGCGIAQKEQSRIFERFYRGGNQNGHSEEGIGLGLAIVKHVALTHHGSASVWSAPGQGSTFTLGLPVARN
MPGACGIYALATVSKPDPDMTQIITALAEISERYRALFVDLWGCVHNGVTAYPEAVAALQAYRAAGGIVVLVTNSPKPRAGVATQLSQFKVPQDAYDTIATSGDSARSAMFRGAVGQKVYFMGEWERDAGFFEPLKLLDSPVEITRVPLQEAEGIVCCGPFDPMADPAVNRPDFLYAKTKGMKLLCANPDIVVDRGEIREWCAGALARLYTEMGGESLYFGKPHPPIYDLARRRLLSLGADIADSEILAIGDGIQTDIAGGQGEGIDSLFISGGLAASETKTGHSPDPAALTAYLDRENRMPTYTIGQLR
MNSCWAKGKLMCEGRPASGVKVKLMESDNSFLPGFLDRDDKMASGKADSNGEFNLSGSTKEITGIEPYLAVFHDCKDGITPCQRVLRINIPKSYANWGSSAEKTFNAGNLELAGKFPGETRSCFN
TQEKRSYMEKLSDENGIISALAFDQRGALKRLMAQYQTQEPTIAQMEELKVLVAEELTPYASSMLLDPEYGLPAAKHLDKNAGLLLAYEKTGYDTTSTKRLPDCLVEWSAKRLKKQGADAVKFLLYYDVDGDEEVNQQKQAYIERIGSECKAEDIPFFLEILAYDETITDAASVEYAKVKPHKVLDAMKVFSDERFGIDVLKVEVPVNMKYVEGFGDGPIVHTQDQAANFFKQQDQATPLPYIYLSAGVSAKLFQDTLVFAKESGANFNGVLCGRATWAGSVKDYIEKGEAAARQWLRTEGFKNIDELNKVLKATATSWKE
MKFPGQRKSKHYFPVHTRDPLVNQINQTPKLERTHLIGVGQTIVDIEAKVDDDFLNRHQLSKGHSLVLEESKAEALYKELFERNLISHEYPGDTIGNTLHNYSVLADSKSILLGVMSEDIKIGSYAYRYLCNTTSRMDLDYLQPVQGPIGRCYTLISEDGERTFAINEGDMNQLCPTHVPEHIFEKASALVISSYLVRGKEGDPMMDAVRKAIDCAKSHNVPVVLTLGTKYVIEGKAEWWQTFLKENVTVVAMNEEEAEALTGEKDPLLAADKALEWVDLVLCTAGPIGLYMAGFTEESIKRETSKPLLPGNIPEFNRFEYSRPMVKALCKKPIKVSSHIAPYMGGPVEIKNTNGAGDAALSALLHDMAANYYHKENVPNSSKHDAEYLTYSSFSQICKYSNRASYEVLTQHSPRLSKSMPEREDCLEEAYWER
MGSDKIHHHHHHMEKSIQDTIHGVIKLEDWMVEIVDTPQFQRLRRINQLGFANLVYPGANHTRFEHSLGVMHVTRILQERMGFDDVVVAAALLHDVGHAPFSHGSERLLEKYASYNHETISKVVRGELKDVLKNLGFRISEIEAIVTGKRRSVVNGEIDADRMDYLVRDSHYTGVAYGVFDIYRLIDKIKFDGAVVIEQGGVKAAESLLISRFLMYPTVYFHHVCRIARKMYERAMERIIEAGFEAENLLEMDDVDAMMLLKEKERETYDRLNNRRLFKRAIYVSRRSLDFREVMRTSERRAEREVAEMAGVDERYVIVDIPPVEEMRESGVMVDTESGLKPLEEVSPLVKALKDAAVENWRLGVYTDRRFVDKVGKAAADYFGIEKVVQKSLDEIFPQ
MLKKYTRYSNFRLISQIQFQRHIDIFHAITYDNIDGLVAAFVRNEPFDIKDKNGNTPLHLAAKLNRRLLCRAVCVYAAGLDLWNSKNNDGKTPIEMTDDANIKRDLQSISTSRSSVDSHHMAYNKLLIEKKINENEEQNQNQKVILSLDGGGLRVVLQCAILLAVERELGEPLRNRIHWIAGTSCGGIMASSIGVGIDLADALRLYIIIRKRIFGGNNQKFPKHSALGIETCLQEVMGSKTLMSKCTAHRLVVTTAKVTLAPPQLVLFRSYAPRIDSKEFEQLGYFNPNKILLWKAIRCTTAAPTYFPSFNGMADGALFCNNPCIMVMTEFAKLKKIENYRGKNNTDEIGCVISVGTGIEPSYPINGIDINLTSGLTGITGNWREIIENTKNLITVFLYQCTSSHNVHVGQSREWCHSMQVPFFRFSPHLAAPFELDNCKIEDITNAMFDNEVYIRTEIKQHISDLCRLLKSMPRNTEPCNYSKITGGKGSKVGSPKSDKK
DESATSYANSAIAIELDGDQYVARIKDPLADHAKYTEAFHAVGLDIDLRLVPASPTAVGKFLSVRWSKSSGAGPARSASGGSLPTLKFTPENCGEPNQAGCELTMRVPADYTGNMSLSLGRRAEPGEEYKNPDWATAPGEMFGGVQLQDGRPVDAMLAEARRRDLTVEFSRIRPDAETGALSFEPLSADQVRGDWTVWHAWQVKAGVIRLLVTPERLPENPFEKGARPPS

Soluble on expression in E. coli, soluble:
MNLCRECYGIIGEGVVAEKCEACCNAFDRVEEFAEEIVKKMSEYEFETFNVGSRVWGSLKALQEYLSLKGIEYEIKQRFNTKLARAIEEKTGSKRTLNPDITVLFDLETFTFELQIRPVFIYGRYLKRVRNISQTRWLCGYCNGEGCEVCNFTGKKYVSSVEELIAMPAVRLFKARDAKLHGAGREDVDARMLGTGRPFVLEVIEPRKRFVDLKELEEAINSQKWVAVRDLEYTDAEKVREVKTERHRKTYRAKVVFEEKVERERLIEALESLKGEIRQRTPMRVSHRRADRVRVRRLYDARLIHHTGRVAVVEFEAEAGLYIKELVSGDNGRTRPSLAEKVGVNARVDRLDVIAVSLEHHHHHH
MAKTLYEKLFDAHVVYEAENETPLLYIDRHLVHEVTSPQAFDGLRAHGRPVRQPGKTFATMDHNVSTQTKDINACGEMARIQMQELIKNCKEFGVELYDLNHPYQGIVHVMGPEQGVTLPGMTIVCGDSHTATHGAFGALAFGIGTSEVEHVLATQTLKQGRAKTMKIEVQGKAAPGITAKDIVLAIIGKTGSAGGTGHVVEFCGEAIRDLSMEGRMTLCNMAIEMGAKAGLVAPDETTFNYVKGRLHAPKGKDFDDAVAYWKTLQTDEGATFDTVVTLQAEEISPQVTWGTNPGQVISVNDNIPDPASFADPVERASAEKALAYMGLKPGIPLTEVAIDKVFIGSCTNSRIEDLRAAAEIAKGRKVAPGVQALVVPGSGPVKAQAEAEGLDKIFIEAGFEWRLPGCSMCLAMNNDRLNPGERCASTSNRNFEGRQGRGGRTHLVSPAMAAAAAVTGHFADIRNIK
MSLSQQVPAASFTLLDGQKLSTQDLKGKVYLVNFWATSCATCVKEMPNMIQTYNKFKGQGLEFVAVAMSYDPPMYVMNYSQTRQLPFKVAMDADGAAARAFGDVQLTPTTFLVDRNGRILRRYVGEPEWASFETLLRDTLAKQAEGLITITTDPNSSSVDKLAAALEHHHHHH
SSSEQKSQHCKPEEGVEAQEEALGLVGAQAPTTEEQEAAVSSSSPLVPGTLEEVPAAESAGPPQSPQGASALPTTISFTCWRQPNEGSSSQEEEGPSTSPDAESLFREALSNKVDELAHFLLRKYRAKELVTKAEMLERVIKNYKRCFPVIFGKASESLKMIFGIDVKEVDPTSNTYTLVTCLGLSYDGLLGNNQIFPKTGLLIIVLGTIAMEGDSASEEEIWEELGVMGVYDGREHTVYGEPRKLLTQDWVQENYLEYRQVPGSNPARYEFLWGPRALAETSYVKVLEHVVRVNARVRIAYPSLREAALLEEEEGV
MSLKIKICGLSTKEAVDTAVESGVTHLGFILSPSKRQVAPEKILQITNDVPKTVKKVGVFVDEPIDFVKKAIQVAQLDLVQLHGNEDMNYINQLDISVIKAIRPDQEFKEYEDVILLFDSPQAGSGQAFDWDSLVTSGLKNKFFIAGGLNPENVAAAIQHFPNAYGVDVSSGVETDGIKNLTKIKNFVQNASLASSKQLFIEFLRITKKLNENKIIPYLMGSLAVEQIINFPTNPDDIDIQLKTSDFENFEQLTSLMEKLGYQLIDLHEHKFEKASIHVGFASVETLKNYAGVDYLTIQQERMENGEKYHLPNVEQSLKIYEAAKRDEWRGGKQKDSFIFDELIKEQKRNDNEGHHHHHH
MVKRTVATNGDASGAHRAKKMSKTHASHIINAQEDYKHMYLSVQPLDIFCWGTGSMCELGLGPLAKNKEVKRPRLNPFLPRDEAKIISFAVGGMHTLALDEESNVWSWGCNDVGALGRDTSNAKEQLKDMDADDSSDDEDGDLNELESTPAKIPRESFPPLAEGHKVVQLAATDNMSCALFSNGEVYAWGTFRCNEGILGFYQDKIKIQKTPWKVPTFSKYNIVQLAPGKDHILFLDEEGMVFAWGNGQQNQLGRKVMERFRLKTLDPRPFGLRHVKYIASGENHCFALTKDNKLVSWGLNQFGQCGVSEDVEDGALVTKPKRLALPDNVVIRSIAAGEHHSLILSQDGDLYSCGRLDMFEVGIPKDNLPEYTYKDVHGKARAVPLPTKLNNVPKFKSVAAGSHHSVAVAQNGIAYSWGFGETYAVGLGPFEDDTEVPTRIKNTATQDHNIILVGCGGQFSVSGGVKLSDEDAEKRADEMDD
MAVKHKSESLKHEEGAAKKAKTGLLKLKKIMDIESNVVKYSICIPTTVIDNCNNLEQVTFTAYQIARTAVLFNVQEIIVLDQSKDKKHEKKSRSKETISDCLLLATLLQYFVTPPNLLDTTFKKKNKLYLKCASTFPPLNQLPFMNASAEQHYKEGLSIARDSSKGKSDDALTNLVYIGKNQIITLSNQNIPNTARVTVDTERKEVVSPIDAYKGKPLGYHVRMASTLNEVSEGYTKIVWVNSGDFHYDEELSKYHKVETKLPYIAKLKKSSTSEKPCNILLIFGKWGHLKRCFRRSDLESSSLHHYFSGQLQFPASVPQGNIPIQDSLPIALTMFQRWAS
MSLLYKKHSLHNIGRWVTNNSFFRKSGRIAVSTFNVAKFGGTSVANFEAMSRCSAIIENNPQTRLVVSSACSGVTNLLVELANGVASTERRQAILQQLADIHYVIIDQLADPTRVEKEVKAVLDSVASAAEAASFQSSKKLTDHLVACGELISTYILTQLMRERGVDAVRFDIREVLRTDDHYGRAEPQLKEIAQLAKEKLVPLCEQYVVVTQGFIGSDAQGNTTTLGRGGSDYSAALIAEAVQASGLEIWTDVPGIYSTDPRIAPKAAPIPEISFSEASEMANFGAKILHPSTLLPAVRHGIPVFVGSSKEPEKGGTWIRKQVESAPLYRALALRCNQTMVTLRSAQMFHAYGFLAKVFEILAKHKISVDLITTSEISVSLTLDKTDTSGGAPELPEAVRAELEELCTVEVEYNLCLIALIGNKMKESRGYAKQVFSVLEDYNLRMICYGASAHNLCFLLHESVSKQAVQKLHKELFEQEEGHHHHHH
